Source: US20260250363A1
Where two headings read alike, the source gives them in different places.

Tests used:
[1] = target: SARS-CoV-2 Spike Trimer, His Tag (BA.4/Omicron) (MALS verified) (AcroBiosystems, SPN-C5229) (SARS-CoV-2) (UniProt P0DTC2); experiment: competition ELISA: blocks biotin-ACE2 binding to coated spike
[2] = target: SARS-CoV-2 B.1.1.529 Spike Protein (Omicron) (SARS-CoV-2) (UniProt P0DTC2); experiment: as above
[3] = target: Recombinant SARS-CoV-2 BA.2 Spike (GCN4-IZ) His Protein, CF (R&D, 11109-CV) (SARS-CoV-2) (UniProt P0DTC2); experiment: as above
[4] = target: SARS-CoV-2 Spike Trimer, His Tag (BA.5/Omicron) (MALS verified) (AcroBiosystems, SPN-C522e) (SARS-CoV-2) (UniProt P0DTC2); experiment: as above
[5] = target: SARS-CoV-2 B.1.617.2 Spike Protein (R&D, Cat. #10878-CV) (SARS-CoV-2) (UniProt P0DTC2); experiment: BLI (ForteBio), mAb on AHC sensor, spike in solution
[6] = target: SARS-CoV-2 B.1.1.529 Spike Protein (Omicron) (SARS-CoV-2) (UniProt P0DTC2); experiment: as above
[7] = target: SARS-CoV-2 B.1.617.2 Spike Protein (R&D, Cat. #10878-CV) (SARS-CoV-2) (UniProt P0DTC2); experiment: direct ELISA on coated spike
[8] = target: SARS-CoV-2 B.1.617.2 Spike Protein (R&D, Cat. #10878-CV) (SARS-CoV-2) (UniProt P0DTC2); experiment: competition ELISA: blocks biotin-ACE2 binding to coated spike
[9] = target: SARS-CoV-2 B.1.617.2 Spike Protein (R&D, Cat. #10878-CV) (SARS-CoV-2) (UniProt P0DTC2); experiment: as above; remark: listed apart in the source

Substance Bebtelovimab (antibody) has an IC50 [1] of 4.07 nM, an IC50 [2] of 6.73 nM and an IC50 [3] of 3.08 nM. For the same substance, the IC50 [4] was 3.46 nM.

For Casirivimab (antibody), the Kd [5] was 0.484 nM, the Kd [6] was 7.82 nM and the EC50 [7] was 0.0399 nM. The IC50 [8] was 1.1 nM and the IC50 [9] was 0.956 nM.

Imdevimab (antibody) gave a Kd [5] of 1.53 nM, a Kd [6] of 456 nM and an EC50 [7] of 0.0671 nM.
